Laboratory results reported in patent US20210130452A1 (Merck KGaA, published 2021).

T1: marmoset IL-17A (marmoset, IL-17A is a disulfide-linked homodimer. One chain is given.)
T1 chain: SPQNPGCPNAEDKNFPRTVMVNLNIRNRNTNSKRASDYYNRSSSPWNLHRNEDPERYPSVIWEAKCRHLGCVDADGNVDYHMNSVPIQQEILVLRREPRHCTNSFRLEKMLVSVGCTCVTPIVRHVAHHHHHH

T2: mouse IL-17A (mouse, UniProt Q62386 26-158)
T2 sequence (looked up): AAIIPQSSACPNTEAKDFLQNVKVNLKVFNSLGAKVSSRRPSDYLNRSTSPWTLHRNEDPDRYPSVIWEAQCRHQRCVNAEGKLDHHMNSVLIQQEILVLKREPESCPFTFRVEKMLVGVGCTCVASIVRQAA

T3: rat IL-17A (rat, UniProt Q61453 18-150, limits assumed)
T3 sequence (looked up): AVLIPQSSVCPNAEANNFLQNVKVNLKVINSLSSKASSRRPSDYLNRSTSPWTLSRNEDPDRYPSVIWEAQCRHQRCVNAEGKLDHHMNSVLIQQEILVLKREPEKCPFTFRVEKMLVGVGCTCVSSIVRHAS

T4: rat IL-17F (rat, UniProt Q5BJ95 29-161)
T4 sequence (looked up): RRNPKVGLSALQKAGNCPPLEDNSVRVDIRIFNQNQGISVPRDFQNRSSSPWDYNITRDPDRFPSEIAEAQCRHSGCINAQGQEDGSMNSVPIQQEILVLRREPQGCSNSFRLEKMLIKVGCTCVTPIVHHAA

T5: mouse IL-17F (mouse, UniProt Q7TNI7 29-161)
T5 sequence (looked up): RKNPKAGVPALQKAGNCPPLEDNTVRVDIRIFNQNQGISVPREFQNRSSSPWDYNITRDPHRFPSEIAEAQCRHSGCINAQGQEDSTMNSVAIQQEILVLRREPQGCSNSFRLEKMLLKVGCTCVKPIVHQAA

T6: mouse IL-17F (mouse, UniProt Q7TNI7 29-161)
T6 sequence (looked up): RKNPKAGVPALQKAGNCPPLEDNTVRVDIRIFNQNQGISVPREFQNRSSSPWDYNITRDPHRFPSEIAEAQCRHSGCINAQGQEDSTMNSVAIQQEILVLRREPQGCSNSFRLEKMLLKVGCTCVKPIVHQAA

T7: rat IL-17F (rat, UniProt Q5BJ95 29-161)
T7 sequence (looked up): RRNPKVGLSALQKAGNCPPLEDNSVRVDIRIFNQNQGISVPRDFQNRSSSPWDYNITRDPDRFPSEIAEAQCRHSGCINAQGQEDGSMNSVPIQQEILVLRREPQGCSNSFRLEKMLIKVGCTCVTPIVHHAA

T8: human IL-17B (human, UniProt Q9UHF5 21-180)
T8 construct: expressed in E. coli; also called hIL-17B
T8 sequence (looked up): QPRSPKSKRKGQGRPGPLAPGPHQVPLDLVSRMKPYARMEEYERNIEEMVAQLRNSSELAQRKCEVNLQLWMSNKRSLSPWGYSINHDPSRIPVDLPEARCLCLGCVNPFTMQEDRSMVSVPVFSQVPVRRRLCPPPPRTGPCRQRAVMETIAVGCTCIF

T9: human IL-17C (human, UniProt Q9P0M4 19-197)
T9 construct: expressed in E. coli; also called hIL-17C
T9 sequence (looked up): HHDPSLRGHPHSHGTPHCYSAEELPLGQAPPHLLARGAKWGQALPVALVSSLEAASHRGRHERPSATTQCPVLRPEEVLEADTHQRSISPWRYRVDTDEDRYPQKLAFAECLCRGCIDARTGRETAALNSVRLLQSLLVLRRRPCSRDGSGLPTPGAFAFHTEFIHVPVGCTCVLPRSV

T10: human IL-17D (human, UniProt Q8TAD2 18-202, limits assumed)
T10 construct: expressed in E. coli; also called hIL-17D
T10 sequence (looked up): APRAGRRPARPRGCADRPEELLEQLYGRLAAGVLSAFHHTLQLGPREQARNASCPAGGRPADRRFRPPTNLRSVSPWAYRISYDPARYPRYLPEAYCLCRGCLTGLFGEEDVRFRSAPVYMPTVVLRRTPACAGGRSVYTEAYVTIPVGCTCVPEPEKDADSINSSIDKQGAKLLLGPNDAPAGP

T11: human IL-17E (human, UniProt Q9H293 33-177)
T11 construct: expressed in E. coli; also called hIL-17E
T11 sequence (looked up): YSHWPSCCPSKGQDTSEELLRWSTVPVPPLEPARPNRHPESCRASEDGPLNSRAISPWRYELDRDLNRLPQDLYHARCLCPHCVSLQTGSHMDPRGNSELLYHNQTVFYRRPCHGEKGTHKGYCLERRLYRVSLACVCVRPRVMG

T12: human IL-17F (human, UniProt Q96PD4 31-163)
T12 construct: made in Hek293 cells (GenBank AF384857); also called hIL-17F; hIL17F
T12 sequence: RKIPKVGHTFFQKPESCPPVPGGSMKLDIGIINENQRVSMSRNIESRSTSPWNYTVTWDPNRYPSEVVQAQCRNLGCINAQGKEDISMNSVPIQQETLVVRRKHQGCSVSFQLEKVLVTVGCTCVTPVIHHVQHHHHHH


Experiments:
human IL-17A [1] = biological target: T13, human IL-17A (human, UniProt Q16552 24-155); assay: ELISA, coated IL-17A
T13 construct: secreted form (GenBank U32659) expressed in Hek293 with C-terminal 6-His; also called hIL-17A; IL-17A-6HIS
T13 sequence (Q16552 other isoform, or with tags, fused parts or gaps): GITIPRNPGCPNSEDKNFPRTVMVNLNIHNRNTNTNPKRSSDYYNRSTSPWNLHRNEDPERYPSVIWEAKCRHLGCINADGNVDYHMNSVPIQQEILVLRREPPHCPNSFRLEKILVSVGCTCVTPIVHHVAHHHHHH
Protocol: (§1) Binding of a selected panel of anti-IL-17 Nanobodies to IL-17 of other species was assessed using a binding ELISA. […] HRP (horseradish peroxidase) conjugated anti-myc (Serotec, MCA 2200P) was used for detection using esTMB as substrate.

marmoset IL-17A = biological target: T1, marmoset IL-17A; assay: ELISA, coated IL-17A
Protocol: as §1

mouse IL-17A = biological target: T2, mouse IL-17A; assay: ELISA, coated IL-17A
Protocol: as §1

rat IL-17A = biological target: T3, rat IL-17A; assay: ELISA, coated IL-17A
Protocol: as §1

guinea pig IL-17A = guinea pig IL-17A (guinea pig); assay: ELISA, coated IL-17A
Protocol: as §1

rat IL-17F [2] = biological target: T4, rat IL-17F; assay: ELISA, coated IL-17F;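 note: binding ELISA on coated antigen from various species, with bound Nanobodies revealed by an HRP-linked anti-myc antibody and esTMB substrate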
Protocol: as §1

human IL-17A [3] = biological target: T13, human IL-17A; assay: SPR, IL-17A-Nanobody complex over captured IL-17RA
Description: The receptor (IL-17RA or IL-17RC) was captured via its human Fc-tail by an anti-human IgG-Fc antibody coated on the chip.

mouse IL-17F [4] = biological target: T5, mouse IL-17F; assay: ELISA, coated IL-17F;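 note: binding ELISA on coated antigen from various species, with bound Nanobodies revealed by an HRP-linked anti-myc antibody and esTMB substrate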
Protocol: as §1

mouse IL-17F [5] = biological target: T6, mouse IL-17F; assay: binding ELISA
Protocol: as §1

rat IL-17F [6] = biological target: T7, rat IL-17F; assay: binding ELISA
Protocol: as §1

human IL-17B = biological target: T8, human IL-17B; assay: SPR, cytokine on chip
Description: (§2) Human IL-17B, IL-17C, IL-17D or IL-17E were all expressed in E. coli, and covalently bound to a CM sensor chip surface via amine coupling using EDC/NHS for activation and HCl for deactivation.
(§3) Next, binding buffer was sent over the chip at the same flow rate to allow spontaneous dissociation of bound Nanobody or antibody.

human IL-17C = biological target: T9, human IL-17C; assay: SPR, cytokine on chip
Description: as §2, §3

human IL-17D = biological target: T10, human IL-17D; assay: SPR, cytokine on chip
Description: as §2, §3

human IL-17E = biological target: T11, human IL-17E; assay: SPR, cytokine on chip
Description: as §2, §3

human IL-17A [7] = biological target: T14, human IL-17A (human, UniProt Q16552 24-155); assay: SPR (Biacore) off-rate
T14 construct: secreted form made in Hek293 cells (GenBank U32659); also called hIL-17A; hIL17A
T14 sequence (Q16552 other isoform, or with tags, fused parts or gaps): as above

human IL-17F = biological target: T12, human IL-17F; assay: SPR (Biacore) off-rate
[8] = biological target: T15, human IL-17A/F heterodimer (human, UniProt Q16552 24-155; Q96PD4 31-163, limits assumed); assay: SPR (Biacore) off-rate
T15 construct: bought, made in E. coli (R&D Systems 5194-IL/CF); also called hIL-17A/F; hIL17A/F
T15 sequence (Q16552 24-155 limits assumed, chain 1 of 2, one chain of several): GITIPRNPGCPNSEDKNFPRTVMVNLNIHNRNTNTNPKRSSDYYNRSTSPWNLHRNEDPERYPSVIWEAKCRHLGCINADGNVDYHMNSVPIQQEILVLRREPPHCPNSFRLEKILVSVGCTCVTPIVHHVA

| Binder | OD (human IL-17A [1]) | OD (marmoset IL-17A) | OD (mouse IL-17A) | OD (rat IL-17A) | OD (guinea pig IL-17A) | OD (rat IL-17F [2]) | % Biacore binding (IL-17A-NB)-IL-17RA (human IL-17A [3]) | OD (mouse IL-17F [4]) | koff (human IL-17A [7]) | koff (human IL-17F) | koff [8] | also measured |
| --- | --- | --- | --- | --- | --- | --- | --- | --- | --- | --- | --- | --- |
| 02A08 (VHH, Class 2) VHH: EVQLVESGGGVVQPGGSLRLSCADSERSFSFNAMGWFRQAPGKEREFVAAISATGDDTYYADSVKGRFAISRDTARNTVYLQMNSLKPEDTAVYYCGARVNFDGTVSYTNDYAYWGQGTQVTVSS | 1.95 OD | 1.95 OD | -0.001 OD | 0.002 OD | 0.002 OD | 0.0035 OD | 0.46% | – | – | – | – | – |
| 11C08 (VHH, Class 4) VHH: EVQLVESGGGLVQAGGSLRLSCAASGVIFRLNAMGWYRAAPGKQRELVAIIVNGGSTNYADSVKGRFTISRDSAKNAVYLQMNSLKPEDTAVYYCYYNIPGDVYWGQGTQVTVSS | 1.71 OD | 0.671 OD | -0.005 OD | 0.002 OD | 0.002 OD | 0.0005 OD | 3.25% | -0.0025 OD | – | – | – | – |
| 06E11 (VHH, Class 3) VHH: EVQLVESGGGLVQAGGSLRLSCPVSGRAFSRGRLGWFRQAPGKEREFVAVAHWSGAITSYADSVKGRFTFSRDNAKNTMNLQMNSLKPEDTAVYYCAADSETSGNWVYWGQGTQVTVSS | – | – | – | – | – | – | – | – | – | – | – | binding result (mouse IL-17F [5]): no binding (tested: 250 nM); binding result (rat IL-17F [6]): no binding (tested: 250 nM); binding result (human IL-17B): no binding; binding result (human IL-17C): no binding; binding result (human IL-17D): no binding; binding result (human IL-17E): no binding |
| 13E05 (VHH, Class 4) VHH: EVQLVESGGGKVQAGDSLTLSCVASGGTFSNYAAWFRQAPGKDRRELVVSIFRTGSITYTADSVKGRFTASRVNTKNTVYLQMNSLKPEDTAVYYCASAYNPGVGYDYWGQGTQVTVSS | 1.96 OD | 1.89 OD | 0.004 OD | 0.003 OD | 0.006 OD | 0.0025 OD | 0.54% | 0.0005 OD | – | – | – | – |
| IL17MS3043 (VHH, variant of IL17MS13B03; Kabat numbering) VHH: EVQLVESGGGSVQPGGSLRLSCAASGRANSINWFGWFRQTPGKEREFVAGIRWSDAYTEYANSVKGRFTISRDNSKNTVYLQMDSLRPEDTAVYYCVLDLSTVRYWGQGTLVTVSS | – | – | – | – | – | – | – | – | 0.000276 s⁻¹ | 0.00811 s⁻¹ | 0.000585 s⁻¹ | – |
| IL17MS3048 (VHH, variant of IL17MS13B03; Kabat numbering) VHH: EVQLVESGGGSVQPGDSLRLSCAASGRANSINWFGWFRQTPGKEREFVAGIRWSDAYTEYANSVKGRFTISRDNSKNTVDLQMNSLRPEDTAVYYCVLDLSTVRYWGQGTLVTVSS | – | – | – | – | – | – | – | – | 0.000295 s⁻¹ | 0.00874 s⁻¹ | 0.000665 s⁻¹ | – |
| IL17MS3046 (VHH, variant of IL17MS13B03; Kabat numbering) VHH: EVQLVESGGGSVQPGDSLRLSCAASGRANSINWFGWFRQTPGKEREFVAGIRWSDAYTEYAASVKGRFTISRDNSKNTVDLQMDSLRPEDTAVYYCVLDLSTVRYWGQGTLVTVSS | – | – | – | – | – | – | – | – | 0.000281 s⁻¹ | 0.00848 s⁻¹ | 0.000515 s⁻¹ | – |
| IL17MS3045 (VHH, variant of IL17MS13B03; Kabat numbering) VHH: EVQLVESGGGSVQPGDSLRLSCAASGRANSINWFGWFRQAPGKEREFVAGIRWSDAYTEYANSVKGRFTISRDNSKNTVDLQMDSLRPEDTAVYYCVLDLSTVRYWGQGTLVTVSS | – | – | – | – | – | – | – | – | 0.00027 s⁻¹ | 0.00794 s⁻¹ | 0.000616 s⁻¹ | – |
| IL17MS3044 (VHH, variant of IL17MS13B03; Kabat numbering) VHH: EVQLVESGGGLVQPGDSLRLSCAASGRANSINWFGWFRQTPGKEREFVAGIRWSDAYTEYANSVKGRFTISRDNSKNTVDLQMDSLRPEDTAVYYCVLDLSTVRYWGQGTLVTVSS | – | – | – | – | – | – | – | – | 0.000212 s⁻¹ | 0.00776 s⁻¹ | 0.000253 s⁻¹ | – |
| 03C07 (VHH, Class 2) VHH: EVQLVESGGGLVQAGGSLRLSCAASGFTFDDYAIGWFRQAPGKEREAVSCFSSSDGSIYYADSVKGRFTISSDNAKNTVYLQMNSLKPEDTAVYYCAGGGGSYYYTQLNYCYDMDYWGKGTQVTVSS | 1.7 OD | 1.7 OD | -0.004 OD | 0.003 OD | 0.004 OD | 0.0015 OD | -0.08% | 0.0005 OD | – | – | – | – |
| 16A04 (VHH, Class 3; also called IL17MS16A04) VHH: EVQLVESGGGLVQAGGSLRLSCAASGRTFSSYVVGWFRQAPGKEREFIGAISGSGDSIYYAVSEKDRFTISRDNGKNTLYLQMSSLKAEDTAVYYCTADQEFGYLRFGRSEYWGQGTQVTVSS | – | – | – | – | – | – | – | – | – | – | – | binding result (mouse IL-17F [5]): no binding (tested: 250 nM); binding result (rat IL-17F [6]): no binding (tested: 250 nM); binding result (human IL-17B): no binding; binding result (human IL-17C): no binding; binding result (human IL-17D): no binding; binding result (human IL-17E): no binding |
| 13B05 (VHH, Class 4) VHH: EVQLVESGGRLVQAGGSLRLSCAASGRTFTSYPMGWFRQAPGKEREFVAAISMSGDDTAYTDFVRGRFTISRDDARNTVYLHMTSLKPEDTAVYYCAARTSYDGTYDYIDDYSYWGQGTQVTVSS | 1.82 OD | 1.91 OD | -0.006 OD | 0.003 OD | 0.001 OD | 0.0095 OD | -0.89% | 0.0205 OD | – | – | – | – |
